{
  "source": "paper PMC10599462",
  "about": "“Molecular basis of sulfolactate synthesis by sulfolactaldehyde dehydrogenase from Rhizobium leguminosarum” (Chemical Science, 2023)",
  "molecules": {"B1": {"name": "RlGabD (SLA dehydrogenase) (Rhizobium leguminosarum bv. trifolii SRDI565) (protein)", "chain": "MTERRTLALKDPALLTDKAFVAGAWIGAPDGKSIAVTDPFDGALIANVPDLGQAVVAQAIDAAAEAQKLWERRTAKERAQVLKRWYDLIVENADDLALILTTEQGKPLAEARGEVVSNAAYLEWFAEEAKRIDGDIIPGPNAGQRIMVLKQPVGVCAAITPWNFPNGMITRKAGPALAAGCSMILKPASQTPLSALALAVLAERAGVPKGVFSVVTGEAKPIGLEFCHNPRIAKITFTGSTGVGRWLMKEAAGGIKRLSLELGGNAPFIVFDDADLDAAVEGAMISKFRNAGQTCVCANRIYVQESVAAAFTERLLAKVSGLSLGRGTDAGVSQGPLIDEKAVAKMEEHIADAMANGGTVLTGGKRSVLGGTFFEPTVVTGVTQTMKVAKEETFAPLAPIISFKHENDVIAMANDSEFGLASYFYAKDMARIWRVAEALEAGMVGVNTGMIANEMAPFGGIKQSGTGREGSKYGIEGFLELKYVALGGM", "notes": "recombinant RlGabD"}},
  "key": {"[1]": {"target": "SLA dehydrogenase RlGabD from Rhizobium leguminosarum SRDI565 (Rhizobium leguminosarum bv. trifolii SRDI565)", "experiment": "SEC-MALS; SEC-MALLS of RlGabD in solution; homotetramer"}, "[2]": {"target": "T1, RlGabD (SLA dehydrogenase) (Rhizobium leguminosarum, UniProt A0AAJ6N661)", "T1 sequence (A0AAJ6N661 1-489)": "B1 chain", "experiment": "biochemical", "design": "gene EV132_10158; recombinant RlGabD; nanoDSF thermal shift (F350/F330 intrinsic fluorescence) of recombinant RlGabD with ligand", "settings": "nanoDSF, average of 2 replicates; read-out: ∆Tm (Avg)"}, "[3]": {"target": "T1, RlGabD (SLA dehydrogenase)", "experiment": "enzyme inhibition assay with constant SLA and NAD+", "type": "biochemical", "design": "gene EV132_10158; recombinant RlGabD"}, "[4]": {"target": "T1, RlGabD (SLA dehydrogenase)", "experiment": "biochemical", "design": "gene EV132_10158; recombinant RlGabD; nanoDSF thermal shift (F350/F330 intrinsic fluorescence) of recombinant RlGabD with ligand", "settings": "nanoDSF, average of 2 replicates; read-out: ∆Tm (Avg)", "remark": "listed apart in the source"}, "[5]": {"target": "T1, RlGabD (SLA dehydrogenase)", "experiment": "cryo-EM structure of binary complex at […] Å", "type": "binding", "design": "gene EV132_10158; recombinant RlGabD tetramer"}, "purified protein [6]": {"substrate": "NC(=O)c1ccc[n+]([C@@H]2O[C@H](COP(=O)([O-])OP(=O)(O)OC[C@H]3O[C@@H](n4cnc5c(N)ncnc54)[C@H](O)[C@@H]3O)[C@@H](O)[C@H]2O)c1", "experiment": "purified protein", "type": "biochemical, Rhizobium leguminosarum", "settings": "binds first to enzyme (rapid equilibrium ordered mechanism); varied: cofactor"}, "purified protein [7]": {"substrate": "O=CC(O)CS(=O)(=O)O", "experiment": "purified protein", "type": "biochemical, Rhizobium leguminosarum", "settings": "NAD+ proposed: Cys295 nucleophile, Glu261 general base, Asn163 oxyanion hole, Arg171/Arg289 sulfonate binding"}, "purified protein [8]": {"substrate": "O=CC(O)COP(=O)(O)O", "experiment": "purified protein", "settings": "NADP+"}, "purified protein [9]": {"substrate": "NC(=O)c1ccc[n+]([C@@H]2O[C@H](COP(=O)([O-])OP(=O)(O)OC[C@H]3O[C@@H](n4cnc5c(N)ncnc54)[C@H](OP(=O)(O)O)[C@@H]3O)[C@@H](O)[C@H]2O)c1", "experiment": "purified protein", "settings": "[…]′-phosphate binding residues Ser179 and Lys182 (E. coli SSADH numbering) conserved; varied: cofactor"}},
  "note": "Like-named read-outs stand apart in the source and are kept apart here.",
  "data": [
    {"molecule": "SLA dehydrogenase RlGabD from Rhizobium leguminosarum SRDI565 (enzyme)", "values": [
      {"measurement": "stoichiometry N", "setting": "[1]", "result": 4}
    ]},
    {"molecule": "NC(=O)c1ccc[n+]([C@@H]2O[C@H](COP(=O)([O-])OP(=O)(O)OC[C@H]3O[C@@H](n4cnc5c(N)ncnc54)[C@H](O)[C@@H]3O)[C@@H](O)[C@H]2O)c1", "note": "[NAD^+]", "values": [
      {"measurement": "ΔTm at 10000 µM", "setting": "[2]", "result": 4.3, "unit": "°C"}
    ]},
    {"molecule": "NC(=O)C1=CN([C@@H]2O[C@H](COP(=O)(O)OP(=O)(O)OC[C@H]3O[C@@H](n4cnc5c(N)ncnc54)[C@H](O)[C@@H]3O)[C@@H](O)[C@H]2O)CCC1", "note": "[tetrahydro-NADH]", "values": [
      {"measurement": "IC50", "setting": "[3]", "result": 28, "unit": "µM"}
    ]},
    {"molecule": "NC(=O)C1=CN([C@@H]2O[C@H](COP(=O)(O)OP(=O)(O)OC[C@H]3O[C@@H](n4cnc5c(N)ncnc54)[C@H](OP(=O)(O)O)[C@@H]3O)[C@@H](O)[C@H]2O)C=CC1", "note": "[NADPH]", "values": [
      {"measurement": "ΔTm at 10000 µM", "setting": "[4]", "result": 2.5, "unit": "°C"}
    ]},
    {"molecule": "NC(=O)C1=CN([C@@H]2O[C@H](COP(=O)(O)OP(=O)(O)OC[C@H]3O[C@@H](n4cnc5c(N)ncnc54)[C@H](O)[C@@H]3O)[C@@H](O)[C@H]2O)C=CC1", "note": "[NADH]", "values": [
      {"measurement": "ΔTm at 10000 µM", "setting": "[2]", "result": 1.5, "unit": "°C"},
      {"measurement": "cryo-EM structure of binary complex at 2.52 Å", "setting": "[5]", "result": "The RlGabD·NADH complex shows the binding mode and positioning of the cofactor."}
    ]},
    {"molecule": "NC(=O)c1ccc[n+]([C@@H]2O[C@H](COP(=O)([O-])OP(=O)(O)OC[C@H]3O[C@@H](n4cnc5c(N)ncnc54)[C@H](OP(=O)(O)O)[C@@H]3O)[C@@H](O)[C@H]2O)c1", "note": "[NADP^+]", "values": [
      {"measurement": "ΔTm at 10000 µM", "setting": "[2]", "result": 3.5, "unit": "°C"}
    ]},
    {"molecule": "B1", "values": [
      {"measurement": "Km", "setting": "purified protein [6]", "result": "81 ± 19", "unit": "µM"},
      {"measurement": "kcat", "setting": "purified protein [6]", "result": "17.7 ± 3.2", "unit": "s⁻¹"},
      {"measurement": "kcat/Km", "setting": "purified protein [6]", "result": "210000 ± 63000", "unit": "M⁻¹ s⁻¹"},
      {"measurement": "Km", "setting": "purified protein [7]", "result": "130 ± 40", "unit": "µM"},
      {"measurement": "kcat", "setting": "purified protein [7]", "result": "17.8 ± 7", "unit": "s⁻¹"},
      {"measurement": "kcat/Km", "setting": "purified protein [7]", "result": "137000 ± 72000", "unit": "M⁻¹ s⁻¹"},
      {"measurement": "Km", "setting": "purified protein [8]", "result": "170 ± 28", "unit": "µM"},
      {"measurement": "kcat", "setting": "purified protein [8]", "result": 3, "unit": "s⁻¹"},
      {"measurement": "kcat/Km", "setting": "purified protein [8]", "result": 10500, "unit": "M⁻¹ s⁻¹"},
      {"measurement": "Km", "setting": "purified protein [9]", "result": "17 ± 4.1", "unit": "µM"},
      {"measurement": "kcat", "setting": "purified protein [9]", "result": 4.1, "unit": "s⁻¹"},
      {"measurement": "kcat/Km", "setting": "purified protein [9]", "result": 240000, "unit": "M⁻¹ s⁻¹"}
    ]}
  ]
}
